Data from patent US20160200782A1 (MOERAE MATRIX, published 2016).

T1: EphA1(h) (human, UniProt P21709 569-976, limits assumed)
T1 sequence (looked up): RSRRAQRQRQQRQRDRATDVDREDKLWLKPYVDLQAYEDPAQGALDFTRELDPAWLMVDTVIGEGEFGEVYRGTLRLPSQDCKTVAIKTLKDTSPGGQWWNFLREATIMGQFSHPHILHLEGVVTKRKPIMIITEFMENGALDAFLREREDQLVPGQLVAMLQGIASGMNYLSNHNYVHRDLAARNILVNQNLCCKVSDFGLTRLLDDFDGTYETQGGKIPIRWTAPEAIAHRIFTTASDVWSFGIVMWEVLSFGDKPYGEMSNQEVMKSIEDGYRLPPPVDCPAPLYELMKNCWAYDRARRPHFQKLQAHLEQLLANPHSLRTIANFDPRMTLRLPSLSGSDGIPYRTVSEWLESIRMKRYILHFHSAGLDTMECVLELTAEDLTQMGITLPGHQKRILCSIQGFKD

T2: TBK1(h) (human, UniProt Q9UHD2 1-729, limits assumed)
T2 sequence (looked up): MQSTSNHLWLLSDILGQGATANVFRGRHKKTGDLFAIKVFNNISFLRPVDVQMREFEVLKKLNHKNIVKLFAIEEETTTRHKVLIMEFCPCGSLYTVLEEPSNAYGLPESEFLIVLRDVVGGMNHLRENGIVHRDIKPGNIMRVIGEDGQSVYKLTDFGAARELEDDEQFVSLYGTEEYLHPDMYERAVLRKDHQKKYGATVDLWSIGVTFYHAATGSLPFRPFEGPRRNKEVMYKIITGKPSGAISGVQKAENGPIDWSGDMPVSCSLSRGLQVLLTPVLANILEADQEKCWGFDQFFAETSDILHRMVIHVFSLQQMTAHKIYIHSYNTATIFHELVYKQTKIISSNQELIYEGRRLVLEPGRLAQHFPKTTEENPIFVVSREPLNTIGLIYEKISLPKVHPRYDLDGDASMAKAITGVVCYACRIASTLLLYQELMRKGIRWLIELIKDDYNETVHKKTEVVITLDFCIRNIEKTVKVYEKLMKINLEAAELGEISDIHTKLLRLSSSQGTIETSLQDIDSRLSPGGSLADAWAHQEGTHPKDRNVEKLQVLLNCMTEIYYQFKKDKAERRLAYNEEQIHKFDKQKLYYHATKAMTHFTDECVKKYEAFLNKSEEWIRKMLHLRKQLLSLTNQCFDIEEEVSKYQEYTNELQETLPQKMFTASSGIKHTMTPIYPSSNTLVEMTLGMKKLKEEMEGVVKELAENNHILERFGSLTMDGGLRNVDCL

T3: SGK(h) (human, UniProt O00141 60-431)
T3 sequence (looked up): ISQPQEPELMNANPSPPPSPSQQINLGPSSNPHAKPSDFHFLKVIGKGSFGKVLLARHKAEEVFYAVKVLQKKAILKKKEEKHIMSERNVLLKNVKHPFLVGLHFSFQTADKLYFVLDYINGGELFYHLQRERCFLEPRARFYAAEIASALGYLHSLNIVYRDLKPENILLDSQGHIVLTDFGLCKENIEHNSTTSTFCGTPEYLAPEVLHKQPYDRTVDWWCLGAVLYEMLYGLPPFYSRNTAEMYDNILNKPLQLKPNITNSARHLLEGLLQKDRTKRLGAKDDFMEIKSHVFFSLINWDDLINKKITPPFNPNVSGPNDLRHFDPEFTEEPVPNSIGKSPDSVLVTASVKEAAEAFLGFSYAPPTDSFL

T4: ALK4(h) (human, UniProt P36896 150-505, limits assumed)
T4 sequence (looked up): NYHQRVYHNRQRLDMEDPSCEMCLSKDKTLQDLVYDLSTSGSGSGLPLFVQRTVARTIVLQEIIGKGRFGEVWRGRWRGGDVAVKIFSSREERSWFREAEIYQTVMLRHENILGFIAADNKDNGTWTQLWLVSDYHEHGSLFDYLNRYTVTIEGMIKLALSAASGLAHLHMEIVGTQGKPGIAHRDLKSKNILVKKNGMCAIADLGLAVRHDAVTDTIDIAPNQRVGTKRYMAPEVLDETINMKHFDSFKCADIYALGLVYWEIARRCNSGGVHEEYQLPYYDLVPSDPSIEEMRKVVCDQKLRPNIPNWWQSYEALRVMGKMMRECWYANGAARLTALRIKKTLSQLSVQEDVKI


How the values were obtained:
Assay in all cases: cell-based or functional assay
EphA1(h) = molecular target: T1, EphA1(h)
c-RAF(h) = c-RAF(h) (human, UniProt P04049 306-648, limits assumed)
PDGFRα(D842V)(h) = PDGFRα(D842V)(h) (human, UniProt P16234 550-1089, limits assumed)
Mnk2(h) = Mnk2(h) (human, UniProt Q9HBH9 1-465, limits assumed)
IGF-1R(h), activated = IGF-1R(h), activated (human, UniProt P08069 959-1367, limits assumed)
CaMKI(h) = CaMKI(h) (human, UniProt Q14012 1-370, limits assumed)
TBK1(h) = molecular target: T2, TBK1(h)
SGK(h) = molecular target: T3, SGK(h)
NEK6(h) = NEK6(h) (human, UniProt Q9HC98 1-313)
ALK4(h) = molecular target: T4, ALK4(h)
AMPKa2(h) = AMPKa2(h) (human, UniProt P54646 1-552, limits assumed)
PASK(h) = PASK(h) (human, UniProt Q96RG2 879-1323, limits assumed)
IRR(h) = IRR(h) (human, UniProt P14616 960-1297, limits assumed)
Chain of IRR(h) (P14616 960-1297 limits assumed): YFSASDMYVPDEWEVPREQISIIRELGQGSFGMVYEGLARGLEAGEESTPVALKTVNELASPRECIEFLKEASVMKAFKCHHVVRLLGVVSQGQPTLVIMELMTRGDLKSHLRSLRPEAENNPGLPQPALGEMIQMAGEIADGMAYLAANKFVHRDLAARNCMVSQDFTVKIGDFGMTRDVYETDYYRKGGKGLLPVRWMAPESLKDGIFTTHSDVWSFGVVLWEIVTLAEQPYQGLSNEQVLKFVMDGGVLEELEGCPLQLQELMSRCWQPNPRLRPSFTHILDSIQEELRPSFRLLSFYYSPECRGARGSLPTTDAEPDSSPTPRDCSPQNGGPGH

Chain of PDGFRα(D842V)(h) (P16234 550-1089 D842V limits assumed): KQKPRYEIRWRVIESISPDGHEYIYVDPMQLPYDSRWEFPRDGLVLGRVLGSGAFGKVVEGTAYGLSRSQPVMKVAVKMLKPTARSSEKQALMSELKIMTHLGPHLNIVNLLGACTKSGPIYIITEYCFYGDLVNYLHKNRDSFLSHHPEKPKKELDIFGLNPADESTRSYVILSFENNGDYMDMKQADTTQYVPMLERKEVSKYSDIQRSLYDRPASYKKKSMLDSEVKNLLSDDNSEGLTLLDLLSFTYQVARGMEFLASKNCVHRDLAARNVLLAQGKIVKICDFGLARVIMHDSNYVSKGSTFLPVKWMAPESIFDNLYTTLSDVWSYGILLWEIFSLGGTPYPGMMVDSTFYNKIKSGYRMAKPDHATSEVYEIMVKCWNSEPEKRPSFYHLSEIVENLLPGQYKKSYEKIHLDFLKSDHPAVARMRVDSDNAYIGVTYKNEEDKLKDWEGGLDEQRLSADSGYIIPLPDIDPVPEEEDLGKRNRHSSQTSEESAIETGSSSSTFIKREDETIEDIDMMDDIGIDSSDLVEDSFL
Chain of CaMKI(h) (Q14012 whole entry): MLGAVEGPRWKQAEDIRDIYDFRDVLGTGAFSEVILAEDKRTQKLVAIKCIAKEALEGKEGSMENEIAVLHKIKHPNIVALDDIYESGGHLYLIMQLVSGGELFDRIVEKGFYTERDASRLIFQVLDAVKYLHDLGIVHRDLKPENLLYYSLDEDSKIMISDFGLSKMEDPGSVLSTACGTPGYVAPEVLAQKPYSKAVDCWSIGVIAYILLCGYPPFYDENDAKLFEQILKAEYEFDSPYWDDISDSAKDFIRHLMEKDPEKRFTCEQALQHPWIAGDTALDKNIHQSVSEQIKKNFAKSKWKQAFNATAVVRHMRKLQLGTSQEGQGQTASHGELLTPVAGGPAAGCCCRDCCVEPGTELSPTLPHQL
Chain of Mnk2(h) (Q9HBH9 whole entry): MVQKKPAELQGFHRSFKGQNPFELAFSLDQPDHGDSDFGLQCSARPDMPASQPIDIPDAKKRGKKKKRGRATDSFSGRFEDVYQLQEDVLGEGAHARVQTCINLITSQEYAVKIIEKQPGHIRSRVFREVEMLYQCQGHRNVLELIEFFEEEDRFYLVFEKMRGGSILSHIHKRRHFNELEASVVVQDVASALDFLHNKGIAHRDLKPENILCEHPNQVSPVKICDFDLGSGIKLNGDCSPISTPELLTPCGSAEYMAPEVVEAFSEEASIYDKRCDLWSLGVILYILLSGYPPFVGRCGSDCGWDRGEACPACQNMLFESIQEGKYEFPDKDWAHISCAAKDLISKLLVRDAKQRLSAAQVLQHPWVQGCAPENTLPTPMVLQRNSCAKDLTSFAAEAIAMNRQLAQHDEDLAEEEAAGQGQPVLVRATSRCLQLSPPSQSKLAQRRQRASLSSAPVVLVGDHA
Chain of NEK6(h) (Q9HC98 whole entry): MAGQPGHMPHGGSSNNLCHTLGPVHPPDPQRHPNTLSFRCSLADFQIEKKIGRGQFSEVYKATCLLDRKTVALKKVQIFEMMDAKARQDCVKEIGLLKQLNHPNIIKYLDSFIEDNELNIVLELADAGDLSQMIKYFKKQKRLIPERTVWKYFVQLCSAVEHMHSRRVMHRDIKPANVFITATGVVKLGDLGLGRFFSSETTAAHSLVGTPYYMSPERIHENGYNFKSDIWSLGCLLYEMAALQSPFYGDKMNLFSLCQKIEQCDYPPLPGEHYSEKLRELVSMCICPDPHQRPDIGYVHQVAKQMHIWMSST
Chain of PASK(h) (Q96RG2 879-1323 limits assumed): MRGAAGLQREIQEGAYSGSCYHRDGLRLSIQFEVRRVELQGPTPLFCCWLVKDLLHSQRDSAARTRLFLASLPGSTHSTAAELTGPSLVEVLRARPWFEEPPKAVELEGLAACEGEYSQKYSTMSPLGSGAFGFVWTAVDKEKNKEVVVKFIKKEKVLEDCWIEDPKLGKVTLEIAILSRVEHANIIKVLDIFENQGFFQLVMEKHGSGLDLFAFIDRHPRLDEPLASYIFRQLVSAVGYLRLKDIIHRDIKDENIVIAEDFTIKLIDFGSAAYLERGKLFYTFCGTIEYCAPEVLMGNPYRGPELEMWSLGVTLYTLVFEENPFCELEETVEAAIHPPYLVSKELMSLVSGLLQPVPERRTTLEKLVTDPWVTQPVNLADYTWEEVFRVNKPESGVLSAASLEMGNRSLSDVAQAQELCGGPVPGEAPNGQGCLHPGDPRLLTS
Chain of IGF-1R(h), activated (P08069 959-1367 limits assumed): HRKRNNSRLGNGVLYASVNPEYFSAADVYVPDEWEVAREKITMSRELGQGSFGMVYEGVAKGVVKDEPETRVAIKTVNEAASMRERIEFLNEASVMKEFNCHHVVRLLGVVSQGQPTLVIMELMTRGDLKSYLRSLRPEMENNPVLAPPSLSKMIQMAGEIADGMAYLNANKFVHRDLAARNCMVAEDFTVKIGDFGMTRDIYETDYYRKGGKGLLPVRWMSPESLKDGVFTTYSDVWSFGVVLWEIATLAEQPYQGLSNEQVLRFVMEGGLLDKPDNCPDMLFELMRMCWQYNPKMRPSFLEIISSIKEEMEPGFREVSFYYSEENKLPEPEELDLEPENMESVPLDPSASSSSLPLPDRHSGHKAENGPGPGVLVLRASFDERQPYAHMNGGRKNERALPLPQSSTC
Chain of AMPKa2(h) (P54646 whole entry): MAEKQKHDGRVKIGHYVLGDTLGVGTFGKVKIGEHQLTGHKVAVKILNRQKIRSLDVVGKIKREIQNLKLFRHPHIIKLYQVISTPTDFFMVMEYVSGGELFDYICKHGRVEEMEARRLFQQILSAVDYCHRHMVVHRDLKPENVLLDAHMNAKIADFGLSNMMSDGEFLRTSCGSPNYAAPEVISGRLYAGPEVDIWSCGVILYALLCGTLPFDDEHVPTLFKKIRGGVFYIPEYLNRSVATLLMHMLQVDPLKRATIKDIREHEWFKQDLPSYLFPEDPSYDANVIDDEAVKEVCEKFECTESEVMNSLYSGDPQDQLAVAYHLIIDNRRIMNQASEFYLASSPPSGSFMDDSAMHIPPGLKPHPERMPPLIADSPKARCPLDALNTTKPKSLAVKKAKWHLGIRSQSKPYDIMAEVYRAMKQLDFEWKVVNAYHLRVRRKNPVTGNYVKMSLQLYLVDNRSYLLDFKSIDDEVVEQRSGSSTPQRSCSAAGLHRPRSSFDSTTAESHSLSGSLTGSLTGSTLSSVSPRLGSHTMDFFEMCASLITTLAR

% activity (EphA1(h)) [%]	% activity (c-RAF(h)) [%]	% activity (PDGFRα(D842V)(h)) [%]	% activity (Mnk2(h)) [%]	% activity (IGF-1R(h), activated) [%]	% activity (CaMKI(h)) [%]	% activity (TBK1(h)) [%]	% activity (SGK(h)) [%]	% activity (NEK6(h)) [%]	% activity (ALK4(h)) [%]	% activity (AMPKa2(h)) [%]	% activity (PASK(h)) [%]	% activity (IRR(h)) [%]	Binder
73	107	114	89	80	1	37	48	82	140	54	29	8	FAKLAARLYRKALARQLGVAA [MMI-0300]
61	102	118	86	77	0	39	54	85	130	58	28	8	KAFAKLAARLYRKALARQLGVAA [MMI-0400]
